# Measured values: publication PMC11735809, “Structural basis of Spliced Leader RNA recognition by the Trypanosoma brucei cap-binding complex” (Nature Communications, 2025)
# Key:
# [1] = system: TbCBP66* (Trypanosoma brucei); assay: EMSA; conditions: EMSA: 20 mM HEPES pH 7.5, 50 mM NaCl, 5 mM MgCl2, Tween (0.05% in RNA buffer), RNA stock 50 nM mixed 1:1, 30 min on ice, 6% native PAGE 4 C; FP: same buffer, 0.
# [2] = system: TbCBP66* R348E (Trypanosoma brucei); assay: fluorescence polarization; conditions: EMSA: 20 mM HEPES pH 7.5, 50 mM NaCl, 5 mM MgCl2, Tween (0.05% in RNA buffer), RNA stock 50 nM mixed 1:1, 30 min on ice, 6% native PAGE 4 C; FP: same buffer, 0.
# [3] = biological target: T1, TbCBC-tetramer (TbCBP20-TbCBP110-TbCBP30-TbCBP66) (Trypanosoma brucei, UniProt Q585L4); assay: competition pull-down on immobilised γ-aminophenyl-m7GTP resin, SDS-PAGE; type: binding; conditions: pH 7.5, 200 mM NaCl, 5 mM MgCl2, 4 °C; competitive at the cap site
# T1 construct: gene Tb06.28P18.1190; full-length subunits co-expressed in Hi5 insect cells (biGBac), HisTrap and heparin purified, tetramer 230 kDa
# T1 sequence (Q585L4 1-187): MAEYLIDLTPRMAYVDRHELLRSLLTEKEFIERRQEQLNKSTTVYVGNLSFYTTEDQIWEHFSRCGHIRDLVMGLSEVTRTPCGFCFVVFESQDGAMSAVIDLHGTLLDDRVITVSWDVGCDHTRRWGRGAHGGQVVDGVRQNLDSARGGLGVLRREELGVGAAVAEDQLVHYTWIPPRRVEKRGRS
# T1 sequence (Q38BU6 1-1004 partner): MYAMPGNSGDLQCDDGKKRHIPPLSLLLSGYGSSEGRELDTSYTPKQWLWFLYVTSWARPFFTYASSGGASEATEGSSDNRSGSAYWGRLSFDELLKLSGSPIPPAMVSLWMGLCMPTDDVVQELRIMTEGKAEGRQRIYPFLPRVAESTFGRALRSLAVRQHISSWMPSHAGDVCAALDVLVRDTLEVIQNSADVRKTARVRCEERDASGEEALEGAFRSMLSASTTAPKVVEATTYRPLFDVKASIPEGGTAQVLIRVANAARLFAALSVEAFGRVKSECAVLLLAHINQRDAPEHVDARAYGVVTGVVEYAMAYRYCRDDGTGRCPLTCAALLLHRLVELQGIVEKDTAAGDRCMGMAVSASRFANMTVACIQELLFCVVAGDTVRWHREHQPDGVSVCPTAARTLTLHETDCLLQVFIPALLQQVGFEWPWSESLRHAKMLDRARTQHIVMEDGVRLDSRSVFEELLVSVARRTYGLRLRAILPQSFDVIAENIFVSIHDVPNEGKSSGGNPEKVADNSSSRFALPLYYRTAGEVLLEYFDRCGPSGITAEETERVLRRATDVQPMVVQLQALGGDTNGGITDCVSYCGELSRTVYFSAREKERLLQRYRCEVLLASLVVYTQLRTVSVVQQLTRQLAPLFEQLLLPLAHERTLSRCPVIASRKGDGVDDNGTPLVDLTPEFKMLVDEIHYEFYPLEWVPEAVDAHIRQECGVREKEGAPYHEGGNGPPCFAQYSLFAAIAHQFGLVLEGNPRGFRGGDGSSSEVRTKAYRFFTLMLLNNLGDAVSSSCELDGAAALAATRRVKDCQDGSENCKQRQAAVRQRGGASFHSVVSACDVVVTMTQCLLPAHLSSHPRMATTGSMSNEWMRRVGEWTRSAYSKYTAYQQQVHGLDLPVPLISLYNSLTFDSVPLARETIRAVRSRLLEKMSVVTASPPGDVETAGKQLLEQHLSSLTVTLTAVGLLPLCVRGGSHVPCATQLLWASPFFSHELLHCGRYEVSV
# T1 sequence (Q387Z0 1-270 partner): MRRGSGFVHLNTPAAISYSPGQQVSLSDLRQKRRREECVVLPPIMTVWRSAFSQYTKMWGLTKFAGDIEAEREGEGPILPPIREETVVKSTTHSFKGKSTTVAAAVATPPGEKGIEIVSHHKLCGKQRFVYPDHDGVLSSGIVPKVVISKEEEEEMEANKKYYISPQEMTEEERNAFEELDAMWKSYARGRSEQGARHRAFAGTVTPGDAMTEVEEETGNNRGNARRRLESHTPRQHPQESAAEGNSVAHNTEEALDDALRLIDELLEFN
# [4] = biological target: T1, TbCBC-tetramer (TbCBP20-TbCBP110-TbCBP30-TbCBP66); assay: cryo-EM structure, […] Å; type: binding; conditions: 2-fold excess of ligand; m7GMP part resolved in the TbCBP20 cap pocket
# [5] = biological target: TAMRA-labeled TbCBP30 peptide comprising residues R34-G60 (Trypanosoma brucei); assay: MST; 50 nM N-terminally TAMRA-labeled peptide mixed 1:1 with a serial dilution of TbCBC-dimer; 20 mM HEPES, 250 mM NaCl, 5 mM MgCl, 0.1 % Tween in the peptide buffer; 30 min on ice; Monolith NT.115; binding quantified from the ligand-dependent increase in the initial fluorescence; n = 3
compound,measurement,setting,value
AUUAGAACAGUUUCUGUACUAUAUUG [SL-hairpin_loop (A14-G39)],Kd,[1],390 nM
"AACUAACGCUAUUAUUAGAACAGUUUCUGUACUAUAUUG [OH-SLe 3'-6FAM (39 nt SL RNA exon, FP)]",Kd,[2],9810 nM
C[n+]1cn([C@@H]2O[C@H](COP(=O)(O)OP(=O)(O)OP(=O)(O)O)[C@@H](O)[C@H]2O)c2nc(N)[nH]c(=O)c21 [m^7GTP],"competition pull-down on immobilised γ-aminophenyl-m7GTP resin, SDS-PAGE",[3],m^7GTP competed efficiently with cap4-SL RNA binding to TbCBC
C[n+]1cn([C@@H]2O[C@H](COP(=O)(O)OP(=O)(O)OP(=O)(O)OC[C@H]3O[C@@H](n4cnc5c(N)ncnc54)[C@H](O)[C@@H]3O)[C@@H](O)[C@H]2O)c2nc(N)[nH]c(=O)c21 [m^7GpppA],"cryo-EM structure, 2.4 Å",[4],The m^7GMP portion of the cap-analog is coordinated by TbCBP20
TbCBC-dimer (TbCBP20-TbCBP110 dimer) (complex),Kd,[5],980 nM
